Test results: patent CN106366186A (ATTOGEN BIOMEDICAL (SUZHOU) INC, dated 2017)

T1: 细胞内源的HPV16 E7蛋白 (CaSki, Siha cells, HPV16-positive cervical cells) (HPV16, UniProt P03129 1-98)
T1 construct: whole, on cells; Intracellular protein detected by immunocytochemistry in fixed, permeabilised cells; also called HPV16 E7内源蛋白
T1 sequence: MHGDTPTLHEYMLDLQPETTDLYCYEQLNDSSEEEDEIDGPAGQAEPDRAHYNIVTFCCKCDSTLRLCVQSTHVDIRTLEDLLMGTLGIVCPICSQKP

T2: 细胞内源的HPV18 E7蛋白 (HeLa, Siha cells) (HPV18, UniProt P06788 1-105)
T2 construct: whole, on cells; Intracellular protein detected by immunocytochemistry in fixed, permeabilised cells
T2 sequence: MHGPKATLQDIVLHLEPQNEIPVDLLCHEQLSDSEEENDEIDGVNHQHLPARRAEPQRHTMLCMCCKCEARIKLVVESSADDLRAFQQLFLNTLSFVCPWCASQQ

T3: His-HPV18 E7重组蛋白 (HPV18, UniProt P06788 1-105)
T3 construct: also called His-HPV18 E7融合蛋白; not shown: His tag
T3 chain: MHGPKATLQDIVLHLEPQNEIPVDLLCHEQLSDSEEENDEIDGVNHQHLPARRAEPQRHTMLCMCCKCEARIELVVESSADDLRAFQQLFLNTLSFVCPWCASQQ

T4: His-Vac (HPV16)
T4 peptide: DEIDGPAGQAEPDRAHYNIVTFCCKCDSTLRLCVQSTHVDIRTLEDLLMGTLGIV


Tests used:
[1] = molecular target: His-HPV16 E7重组蛋白 (HPV16) (UniProt P03129); experiment: ELISA, scFv 5μg/ml on 0.1μg/ml coated antigen, anti-Flag-HRP; selection threshold
[2] = molecular target: T1, 细胞内源的HPV16 E7蛋白 (CaSki, Siha cells, …); experiment: immunocytochemistry, CaSki cells
[3] = molecular target: T2, 细胞内源的HPV18 E7蛋白 (HeLa, Siha cells); experiment: immunocytochemistry, HeLa and Siha cells
[4] = molecular target: T3, His-HPV18 E7重组蛋白; experiment: indirect ELISA, 0.5μg/ml coat, antibody 1μg/ml
[5] = molecular target: T4, His-Vac; experiment: indirect ELISA on peptides
[6] = molecular target: His-HPV16 E7重组蛋白 (HPV16) (UniProt P03129); experiment: indirect ELISA, antibody 0.1μg/ml on 0.1μg/ml coat; threshold for a positive clone

Row | Binder | OD值 [1] [OD] | binding result [2] | binding result [3] | binding result [4] | binding result [5] | OD值 [6] [OD]
1 | HPV16 E7单链抗体scFv001 (scFv, V domains shown) VH: QSLEESGGRLVTPGTPLTLTCTASGSDISSYAISWVRQAPGKGLEWIGSISNSGNTYYASWAKGRFTIAKTSTTVTLKMTSLTTADTATYFCTRGAISGTPIWGPGTLVTVSS VL: DPMLTQTASSVSAAVGGTVTISCQSSQSVYDNNWLGWYQQKPGQPPKLLIYSVSTLASGVPSRFKGSGSGTQFTLTISDLECDDAATYYCAGGFSGNIYTFGGGTNVEIK | > 2 |  |  |  |  | 
2 | HPV16 E7兔单克隆抗体RAB-001 (antibody, V domains shown, also called RAB-01; anti-HPV16 E7单抗RAB-001) VH: QSLEESGGRLVTPGTPLTLTCTASGSDISSYAISWVRQAPGKGLEWIGSISNSGNTYYASWAKGRFTIAKTSTTVTLKMTSLTTADTATYFCTRGAISGTPIWGPGTLVTVSS VL: DPMLTQTASSVSAAVGGTVTISCQSSQSVYDNNWLGWYQQKPGQPPKLLIYSVSTLASGVPSRFKGSGSGTQFTLTISDLECDDAATYYCAGGFSGNIYTFGGGTNVEIK |  | binds | binds | binds | no binding (tested: antibody 1μg/ml, peptide coat 2μg/ml) | > 1
3 | HPV16 E7兔单克隆抗体RAB-034 (antibody, from another filing, V domains shown) VH: QSLEESGGRLVTPGTPLTLTCTVSGIDLSSYAMGWVRQAPGEGLDWIGSIGSSGRTYYANWAKGRFTISKTSSTTVDLKMTSLTTEDTATYFCARGVVNRSDIWGPGTLVTVSS VL: DPMLTQTASSVSAAVGGTVTISCQSSQSVYDNNWLGWYQQKPGQPPKLLIYGASNLESGVPSRFKGSGSGTQFTLTISDVQCDDAATYYCAGGYSGNRYVFGGGTEVVVK |  |  |  |  |  | > 1
